According to PMC10786891, “Massively parallel profiling of RNA-targeting CRISPR-Cas13d”:

T1: EsCas13d, nuclease-dead (Eubacterium siraeum, UniProt B0MS50, R295A;H300A;R849A;H854A)
T1 sequence: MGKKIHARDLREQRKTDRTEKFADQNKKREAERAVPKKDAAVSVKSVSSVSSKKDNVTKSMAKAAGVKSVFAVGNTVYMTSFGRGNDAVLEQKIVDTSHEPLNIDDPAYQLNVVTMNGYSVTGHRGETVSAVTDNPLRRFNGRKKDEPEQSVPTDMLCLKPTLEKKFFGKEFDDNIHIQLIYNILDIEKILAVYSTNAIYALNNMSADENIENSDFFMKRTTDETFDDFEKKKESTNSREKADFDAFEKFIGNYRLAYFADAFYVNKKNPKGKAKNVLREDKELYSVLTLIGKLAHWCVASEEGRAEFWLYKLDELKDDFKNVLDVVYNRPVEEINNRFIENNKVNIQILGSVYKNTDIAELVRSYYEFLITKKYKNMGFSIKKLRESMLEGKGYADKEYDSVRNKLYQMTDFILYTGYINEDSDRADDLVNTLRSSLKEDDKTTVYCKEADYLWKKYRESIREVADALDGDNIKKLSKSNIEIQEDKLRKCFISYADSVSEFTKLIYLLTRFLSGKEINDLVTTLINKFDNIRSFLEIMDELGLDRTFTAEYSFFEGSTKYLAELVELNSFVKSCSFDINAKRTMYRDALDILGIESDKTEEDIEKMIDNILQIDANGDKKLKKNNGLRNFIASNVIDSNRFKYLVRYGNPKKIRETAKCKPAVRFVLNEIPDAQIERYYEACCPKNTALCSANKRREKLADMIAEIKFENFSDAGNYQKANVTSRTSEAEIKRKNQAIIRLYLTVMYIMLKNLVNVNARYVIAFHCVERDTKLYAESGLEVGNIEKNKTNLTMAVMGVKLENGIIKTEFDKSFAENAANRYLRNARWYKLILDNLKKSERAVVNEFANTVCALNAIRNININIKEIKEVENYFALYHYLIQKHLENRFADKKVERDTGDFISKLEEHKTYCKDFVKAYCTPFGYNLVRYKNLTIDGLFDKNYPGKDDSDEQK

B1: target 1 MT 5'PFS CUU 3'PFS UAG (mixed)
RNA 1: CACCCGUGCAAAAAUGCAGGGGUCUAAAACUGAGCGGAUAACCUCUCUAUGG
RNA 2: GGGAAUGGAUCCACAUCUACGAAUUCCUUCCAUAGAGAGGUUAUCCGCUCAUAGAGAUCGGAAGAGCACACGU
B2: target 1 MT 5'PFS AGA 3'PFS UAG (mixed)
RNA 1: CACCCGUGCAAAAAUGCAGGGGUCUAAAACUGAGCGGAUAACCUCUCUAUGG
RNA 2: GGGAAUGGAUCCACAUCUACGAAUUCAGACCAUAGAGAGGUUAUCCGCUCAUAGAGAUCGGAAGAGCACACGU
B3: target 1 MT 5'PFS GUG 3'PFS GAU (mixed)
RNA 1: CACCCGUGCAAAAAUGCAGGGGUCUAAAACUGAGCGGAUAACCUCUCUAUGG
RNA 2: GGGAAUGGAUCCACAUCUACGAAUUCGUGCCAUAGAGAGGUUAUCCGCUCAGAUAGAUCGGAAGAGCACACGU
B4: target 1 MT 5'PFS GUG 3'PFS GAC (mixed)
RNA 1: CACCCGUGCAAAAAUGCAGGGGUCUAAAACUGAGCGGAUAACCUCUCUAUGG
RNA 2: GGGAAUGGAUCCACAUCUACGAAUUCGUGCCAUAGAGAGGUUAUCCGCUCAGACAGAUCGGAAGAGCACACGU
B5: target 1 MT 5'PFS UAC 3'PFS UCC (mixed)
RNA 1: CACCCGUGCAAAAAUGCAGGGGUCUAAAACUGAGCGGAUAACCUCUCUAUGG
RNA 2: GGGAAUGGAUCCACAUCUACGAAUUCUACCCAUAGAGAGGUUAUCCGCUCAUCCAGAUCGGAAGAGCACACGU
B6: target 1 MT 5'PFS UGG 3'PFS CAU (mixed)
RNA 1: CACCCGUGCAAAAAUGCAGGGGUCUAAAACUGAGCGGAUAACCUCUCUAUGG
RNA 2: GGGAAUGGAUCCACAUCUACGAAUUCUGGCCAUAGAGAGGUUAUCCGCUCACAUAGAUCGGAAGAGCACACGU
B7: target 1 MT 5'PFS AGA 3'PFS UAA (mixed)
RNA 1: CACCCGUGCAAAAAUGCAGGGGUCUAAAACUGAGCGGAUAACCUCUCUAUGG
RNA 2: GGGAAUGGAUCCACAUCUACGAAUUCAGACCAUAGAGAGGUUAUCCGCUCAUAAAGAUCGGAAGAGCACACGU
B8: target 1 MT 5'PFS UAC 3'PFS UCG (mixed)
RNA 1: CACCCGUGCAAAAAUGCAGGGGUCUAAAACUGAGCGGAUAACCUCUCUAUGG
RNA 2: GGGAAUGGAUCCACAUCUACGAAUUCUACCCAUAGAGAGGUUAUCCGCUCAUCGAGAUCGGAAGAGCACACGU
B9: target 1 MT 5'PFS GUG 3'PFS GAA (mixed)
RNA 1: CACCCGUGCAAAAAUGCAGGGGUCUAAAACUGAGCGGAUAACCUCUCUAUGG
RNA 2: GGGAAUGGAUCCACAUCUACGAAUUCGUGCCAUAGAGAGGUUAUCCGCUCAGAAAGAUCGGAAGAGCACACGU
B10: target 1 MT 5'PFS AGA 3'PFS UAC (mixed)
RNA 1: CACCCGUGCAAAAAUGCAGGGGUCUAAAACUGAGCGGAUAACCUCUCUAUGG
RNA 2: GGGAAUGGAUCCACAUCUACGAAUUCAGACCAUAGAGAGGUUAUCCGCUCAUACAGAUCGGAAGAGCACACGU
B11: target 1 MT 5'PFS UCG 3'PFS UGC (mixed)
RNA 1: CACCCGUGCAAAAAUGCAGGGGUCUAAAACUGAGCGGAUAACCUCUCUAUGG
RNA 2: GGGAAUGGAUCCACAUCUACGAAUUCUCGCCAUAGAGAGGUUAUCCGCUCAUGCAGAUCGGAAGAGCACACGU
B12: target 1 MT 5'PFS GUG 3'PFS GAG (mixed)
RNA 1: CACCCGUGCAAAAAUGCAGGGGUCUAAAACUGAGCGGAUAACCUCUCUAUGG
RNA 2: GGGAAUGGAUCCACAUCUACGAAUUCGUGCCAUAGAGAGGUUAUCCGCUCAGAGAGAUCGGAAGAGCACACGU
B13: target 1 insC 3' of 9,insA 3' of 5 (mixed)
RNA 1: CACCCGUGCAAAAAUGCAGGGGUCUAAAACUGAGCGGAUAACCUCUCUAUGG
RNA 2: GGGAAUGGAUCCACAUCUACGAAUUCGUACCAUAGAGAGGUUACUCCGACUCACCGAGAUCGGAAGAGCACACGU

Target: T1, EsCas13d, nuclease-dead
Test: crRNA (strand 1, pre-loaded); Mg2+; 40 mM Tris-HCl pH 7.5, 150 mM NaCl, 6 mM MgCl2, 1 mM DTT, 0.1% Tween-20, 0.2 mg/ml BSA; 25 C; 10 min per concentration, then washed
Conditions: tags: His6-TwinStrep-SUMO cleaved; N-terminal SNAP kept (SNAP-Surface 488); label: 3' end held by stalled T7 RNA polymerase

Row | Binder | Kd [nM]
1 | B1 | ~90
2 | B2 | 35.5 ± 14
3 | B3 | 15.4 ± 1.95
4 | B4 | 17.2 ± 2.9
5 | B5 | 12.5 ± 5
6 | B6 | 80 ± 32
7 | B7 | 45 ± 20
8 | B8 | 21.3 ± 8.05
9 | B9 | 12.9 ± 1.4
10 | B10 | 40 ± 17
11 | B11 | ~50
12 | B12 | 18.8 ± 2.25
13 | B13 | 5.89 ± 0.35
